According to patent US20260216242A1 (ALMAC DISCOVERY, published 2026):
Changes are numbered by the printed parent chain.

Experiments:
[1] = target: T1, Human ALPP (leucine zipper) (human); assay: BLI, antigen immobilised
T1 construct: Whole entry: ALPP fused with a cysteine stabilised leucine zipper and His tag; also called hALPP
T1 chain: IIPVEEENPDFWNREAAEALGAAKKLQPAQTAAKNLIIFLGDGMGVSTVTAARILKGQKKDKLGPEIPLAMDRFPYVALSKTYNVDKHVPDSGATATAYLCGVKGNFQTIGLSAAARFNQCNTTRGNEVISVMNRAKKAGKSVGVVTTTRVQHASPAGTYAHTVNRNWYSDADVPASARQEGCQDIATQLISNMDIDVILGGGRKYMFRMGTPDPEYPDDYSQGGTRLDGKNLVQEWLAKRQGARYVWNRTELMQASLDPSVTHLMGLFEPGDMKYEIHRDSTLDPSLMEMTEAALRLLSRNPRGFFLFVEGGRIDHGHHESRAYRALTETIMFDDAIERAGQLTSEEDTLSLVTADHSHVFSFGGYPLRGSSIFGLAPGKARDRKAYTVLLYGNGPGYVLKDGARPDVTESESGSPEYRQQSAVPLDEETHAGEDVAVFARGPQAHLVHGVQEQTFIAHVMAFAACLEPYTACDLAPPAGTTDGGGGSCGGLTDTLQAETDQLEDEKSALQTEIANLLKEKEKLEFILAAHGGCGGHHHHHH
Description: (§1) Binding kinetics were determined using the Biolayer Interferometry (BLI) Octet K2 system (Sartorius). […] All assays were conducted in PBS with a plate temperature of 25° C. Ka (M⁻¹s⁻¹), Kd (s⁻¹) and KD (nM) values were determined using Octet Data Analysis High Throughput software (ForteBio) for Biolayer Interferometry.

[2] = target: T2, Human ALPPL2 (leucine zipper) (human); assay: BLI, antigen immobilised
T2 construct: Whole entry: fused with a cysteine stabilised leucine zipper and His tag; also called hALPPL2
T2 chain: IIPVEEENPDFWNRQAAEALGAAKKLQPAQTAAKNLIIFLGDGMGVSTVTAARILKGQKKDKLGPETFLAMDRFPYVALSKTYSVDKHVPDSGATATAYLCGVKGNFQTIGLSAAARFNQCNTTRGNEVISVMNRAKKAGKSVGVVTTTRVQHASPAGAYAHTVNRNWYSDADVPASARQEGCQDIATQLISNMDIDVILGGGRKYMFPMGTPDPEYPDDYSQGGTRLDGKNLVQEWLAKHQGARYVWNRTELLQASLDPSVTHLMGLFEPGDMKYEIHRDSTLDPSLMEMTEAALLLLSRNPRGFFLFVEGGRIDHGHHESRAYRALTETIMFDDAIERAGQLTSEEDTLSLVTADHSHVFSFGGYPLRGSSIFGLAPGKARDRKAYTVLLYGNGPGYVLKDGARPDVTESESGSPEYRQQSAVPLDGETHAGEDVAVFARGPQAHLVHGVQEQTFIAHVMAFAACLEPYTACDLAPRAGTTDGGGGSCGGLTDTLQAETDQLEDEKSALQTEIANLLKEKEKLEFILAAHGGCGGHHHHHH
Description: as §1

[3] = target: T3, human ALPI on CHO cells (human, UniProt P09923 20-503); assay: flow cytometry, CHO cells stably expressing human ALPI; His6-tagged VHH detected with anti-His tag Ab and FITC anti-mouse Ab
T3 construct: whole, on cells; also called CHO-ALPI
T3 sequence (looked up): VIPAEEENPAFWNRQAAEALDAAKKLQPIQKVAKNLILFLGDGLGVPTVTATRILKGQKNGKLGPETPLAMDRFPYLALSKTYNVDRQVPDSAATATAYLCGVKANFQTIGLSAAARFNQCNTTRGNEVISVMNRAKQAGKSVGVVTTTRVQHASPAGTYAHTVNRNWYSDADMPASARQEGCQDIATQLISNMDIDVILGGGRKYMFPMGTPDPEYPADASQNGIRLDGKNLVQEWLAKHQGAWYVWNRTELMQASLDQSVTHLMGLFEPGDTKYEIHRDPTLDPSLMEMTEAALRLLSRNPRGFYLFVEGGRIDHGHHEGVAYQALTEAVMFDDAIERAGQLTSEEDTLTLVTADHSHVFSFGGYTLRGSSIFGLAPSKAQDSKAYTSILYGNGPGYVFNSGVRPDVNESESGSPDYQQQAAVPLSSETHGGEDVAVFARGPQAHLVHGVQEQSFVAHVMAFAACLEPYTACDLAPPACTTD
Description: C-terminal His tagged VHH proteins were assessed for ALPP, ALPPL2, ALPI and ALPL cell-surface binding by flow cytometry. Binders encompassing different epitope bins were screened on CHO cells stably expressing ALPP, ALPPL2, ALPI or ALPL. High levels of cell-surface proteins expression were confirmed for each of the cell-lines by flow cytometry.
(§2) Cell surface binding of test agents to hALPP isoforms was characterized in four CHO-ALPP isoform stably transfected cell lines (CHO-ALPP, CHO-ALPPL2, CHO-ALPI and CHO-ALPL) and the resulting KDapp values determined. Adherent cells were detached from tissue culture flasks by incubating with 0.1% EDTA/PBS solution at 37° C. for ~10 minutes or until cells detached easily. Cells were re-suspended in ice-cold PBS/2% FCS in 15 ml tubes and centrifuged at 1700 rpm for 5 mins at 4° C. Supernatant was removed and the cell pellet re-suspended in PBS/2% FCS. […] Cells were incubated with 100 μl of test agents at a range of concentrations, plus controls for 1 hr on ice. The sample plate was centrifuged at 1700 rpm for 5 mins at 4° C. The supernatant was removed, and a wash performed by re-suspending the cell pellets in 0.25 mL of ice-cold PBS/2% FCS using a multichannel pipette. Samples were again centrifuged at 1700 rpm for 5 min at 4° C. Supernatant was removed and two further washes performed as described. After the final wash and centrifugation step, excess liquid was removed by blotting the plate on tissue paper. Binding of VHH (His6 tagged) agents was determined by adding 100 μl of anti-x6His tag Ab (Abcam) per cell pellet sample as appropriate and incubating on ice for 30 mins. Wash steps were performed as described previously. Fitc-anti-mouse antibody (ThermoFisher) was used to detect binding of the VHH (His6 tagged) agents by incubating with the appropriate samples for 30 min on ice in the dark. Wash steps were performed as described previously. All cell pellets were finally re-suspended in […] of ice-cold PBS/2% FCS and left on ice in the dark prior to analysis on a Merck-Millipore Guava EasyCyte HT or Thermo Fisher Attune N×T flow cytometer.

[4] = target: T4, human ALPP on CHO cells (human, UniProt P05187 23-506); assay: flow cytometry, CHO cells, 350 nM
T4 construct: whole, on cells; also called CHO-ALPP
Description: as §2

[5] = target: T3, human ALPI on CHO cells; assay: flow cytometry, CHO cells, 350 nM
Description: as §2

B1: E10 His (VHH, not shown: small tags and cut ends)
VHH: QVQLVESGGGLVQAGGSLRLSCAVSGRALSDYNIGWFRQAPGKEREFVARKTWDGSSTRYDDSVKGRFTVSIEDAKNTAYLQMSSLKTEDTAVYYCAAGRYSRARGWEYDYWGQGTQVTVSS
notes: also called #265
For B1, which Kd [1] is on record?
The Kd was under 0.01 nM.

What about the koff [1] of the same binder?
Its koff is under 1e-07 s⁻¹.

What about the kon [1] of the same binder?
Its kon is 54200 M⁻¹ s⁻¹.

And the Kd [2]?
The Kd was 0.0862 nM.

And the koff [2]?
Its koff is 0.000141 s⁻¹.

What about the kon [2] of the same binder?
The kon was 1.64e+06 M⁻¹ s⁻¹.

Does B1 bind [3]?
Result: no binding (tested: 350 nM)

B2: F05 His (VHH, not shown: small tags and cut ends)
VHH: B1 VHH with V24A, L29F, S30G, K51R, E73D, D74N, S84N, A104V
With B2 as the binder, how does the Kd [1] read?
The Kd was under 0.01 nM.

What about the koff [1] of the same binder?
Its koff is under 1e-07 s⁻¹.

What about the kon [1] of the same binder?
The kon was 13900 M⁻¹ s⁻¹.

What about the Kd [2] of the same binder?
The Kd was 0.0954 nM.

What about the koff [2] of the same binder?
The koff was 0.000356 s⁻¹.

And the kon [2]?
The kon was 3.74e+06 M⁻¹ s⁻¹.

Does B2 bind [3]?
Result: no binding (tested: 350 nM)

B3: C07 His (VHH, not shown: small tags and cut ends)
VHH: QVQLVESGGGLVQAGESLRLACAASGTIFSGNAVGWYRQAPEKQREWVSSITDYGDTDYAEAVKGRFTISRDNAKNTVYLQMNSLKPEDTAVYYCYVYQRGESEEYWGQGTQVTVSS
notes: also called #258
What does the source list for B3?
Kd [1]: 0.22 nM; koff [1]: 2.8e-05 s⁻¹; kon [1]: 129000 M⁻¹ s⁻¹; Kd [2]: 0.61 nM; koff [2]: 0.000288 s⁻¹; kon [2]: 471000 M⁻¹ s⁻¹; binding result [3]: no binding (tested: 350 nM)

B4: D10 His (VHH, not shown: small tags and cut ends)
VHH: QVQLVESGGGLVQPGGSLRLSCAASGSIFSVNTMGWYRQAPGKQRDLVAVATSGGTIHYADSVKGRFTISRDNAKNTVYLQMNSLKPEDTAVYYCNLVVPYGMIAGDHDYWGQGTKVTVSS
B4 was tested. Which Kd [1] did it give?
Its Kd is 0.2 nM.

And the koff [1]?
Its koff is 1.3e-05 s⁻¹.

What about the kon [1] of the same binder?
Its kon is 67300 M⁻¹ s⁻¹.

What about the Kd [2] of the same binder?
The Kd was 1.22 nM.

What about the koff [2] of the same binder?
The koff was 0.0028 s⁻¹.

What about the kon [2] of the same binder?
The kon was 2.3e+06 M⁻¹ s⁻¹.

Does B4 bind [3]?
Result: no binding (tested: 350 nM)

B5: F08 His (VHH, not shown: small tags and cut ends)
VHH: QVQLVESGGGSVQAGGSLRLSCAASGPSLSNYAMGWFRQAPGKEREFVAGISWGGGRTSYTDSVKGRFTISRDNAKNTVYLQMNNLKPEDTGVYYCAGRYGRGRNVEYEYDYWGQGTQVTVSS
notes: also called #269
How did the Kd [1] turn out when B5 was run?
Its Kd is under 0.01 nM.

What about the koff [1] of the same binder?
The koff was under 1e-07 s⁻¹.

And the kon [1]?
Its kon is 252000 M⁻¹ s⁻¹.

And the Kd [2]?
The Kd was under 0.01 nM.

And the koff [2]?
The koff was under 1e-07 s⁻¹.

And the kon [2]?
The kon was 684000 M⁻¹ s⁻¹.

And the MFI [4]?
Its MFI is 7370 MFI.

And the MFI [5]?
Its MFI is 99 MFI.

What about the “fold lower MFI for ALPI binding versus ALPP” value [5] of the same binder?
The value was 75 fold.

B6: A05 His (VHH, not shown: small tags and cut ends)
VHH: QVQLVESGGGLVQAGASLTLSCAASGFTFNTRSIVWFRQAPGKEREAVSCISKVAGSTYYGDSVQGRFSSSTDNAKNTVSLQMNSLKPEDTAVYTCAASFAPNCYGWSVAANMEYWGEGTMVTVSS
notes: also called #249
Which Kd [1] does the source give for B6 here?
The Kd was under 0.01 nM.

What about the koff [1] of the same binder?
The koff was under 1e-07 s⁻¹.

And the kon [1]?
Its kon is 260000 M⁻¹ s⁻¹.

Does B6 bind [3]?
Result: no binding (tested: 350 nM)

B7: A06 His (VHH, not shown: small tags and cut ends)
VHH: QVHLVESGGGLVQAGGSLRLSCAASGRTFLSMGWFRQAPGKEREFVAAISWTGGSTGYADSVKGRFTISRESDKETMYLQMNSLKPEDTAVYYCAARGDVYYGGDDATRYKYWGQGTQVTVSS
notes: also called #250
Which Kd [1] does the source give for B7 here?
Its Kd is 1.32 nM.

And the koff [1]?
Its koff is 0.000154 s⁻¹.

What about the kon [1] of the same binder?
The kon was 117000 M⁻¹ s⁻¹.

What about the Kd [2] of the same binder?
Its Kd is 5.04 nM.

What about the koff [2] of the same binder?
Its koff is 0.000672 s⁻¹.

And the kon [2]?
The kon was 133000 M⁻¹ s⁻¹.

Does B7 bind [3]?
Result: no binding (tested: 350 nM)

B8: D04 His (VHH, not shown: small tags and cut ends)
VHH: QVQLVESGGGLVQPGGSLRLSCAASESTFSINVMGWYRQAPGKQRELVATITSGDITNYADSVKGRFTISRDNAENTVYLRTNSLKPEDTAVYYCNARGEYHSGNEYDYWGQGTQVTVSS
Which Kd [1] does the source give for B8 here?
Its Kd is under 0.01 nM.

And the koff [1]?
Its koff is under 1e-07 s⁻¹.

What about the kon [1] of the same binder?
Its kon is 85100 M⁻¹ s⁻¹.

What about the Kd [2] of the same binder?
Its Kd is 2.92 nM.

And the MFI [4]?
The MFI was 6650 MFI.

And the MFI [5]?
Its MFI is 629 MFI.

B9: E06 His (VHH, not shown: small tags and cut ends)
VHH: QVHLVESGGGLVQAGGSLRLSCAASRRSFSEYAMGWFRQAPGKEREFVAAIGWSGVIEYADSVKGRFTISRDNAKDTVYLQMNSLKPEDTAVYYCAAGLGIRVVSQTPAYWGQGTQVTVSS
With B9 as the binder, how does the Kd [1] read?
The Kd was under 0.01 nM.

And the koff [1]?
Its koff is under 1e-07 s⁻¹.

And the kon [1]?
Its kon is 106000 M⁻¹ s⁻¹.

What about the Kd [2] of the same binder?
Its Kd is 0.0834 nM.

And the koff [2]?
The koff was 8.75e-05 s⁻¹.

What about the kon [2] of the same binder?
Its kon is 1.05e+06 M⁻¹ s⁻¹.

Does B9 bind [3]?
Result: no binding (tested: 350 nM)
